In the DeepSol protein solubility set:

Test: soluble on expression in E. coli; label from the status in PepcDB or PDB records

Row | Sequence | soluble on expression in E. coli
1 | VRRDRAPPERGGAGTSQDGTSKNWFKITIPYGRKYDKAWLLSMIQSKCSVPFTPIEFHYENTRAQFFVEDASTASALKAVNYKILDRENRRISIIINSSAPPHTILNELKPEQVEQLKLIMSKRYDGSQQALDLKGLRSDPDLVAQNIDVVLNRRSSMAATLRIIEENIPELLSLNLSNNRLYRLDDMSSIVQKAPNLKILNLSGNELKSERELDKIKGLKLEELWLDGNSLCDTFRDQSTYISAIRERFPKLLRLDGHELPPPIAFDVEAPTTLPP | soluble
2 | MGSDKIHHHHHHMKIDSEHLEILAVIVEKGGLTEGAEALGKSQPSVSRTMALLEERIGTPLFEAGRRPLRPTELGNQLARLGAKIRTQNLEASRLVQRYRQGQAGRLRLGGTPIFFDGVVAGMVAEFQNRHSDVQITQTYGYFEDLSAGLRSGALDLAILPMHANMIPADMQFTPLLAGRNVIVGSATHPLARRGAITLADIEPYSWIAPPPDSPLFRDLQRSLKSIGLDDFKVSFSGGTLASIFSVVLGSDSLTVLPYSVVFTHQRVIPLQALPLRIEHPDRQLGLLTATERMPPPALERFVAFVTEKFKHLSTRMEHEQQVTRRRG | not soluble
3 | MGSDKIHHHHHHFEDLKPVIADSTKVTQAHTYKDINKLDIDVKDVNVEFREGKNYSVRYEGAKSSSPTVKKSGNQLQIKGRLSSHSIRFNGMSMYDDYYRNSDRNKMIITLPKDSKLDELNLKLSDSLLSQVNMTGIEADRVKASIHDTKLDLRDANFGNVELSAGDSDISMTNTVLSNGKLDLNDTDVRLDGGSLMQVAMNITEGDVDYNNLSIQGGNLRNNDGDIKMSNTQIQGGYKIDDTDGDILVSRVTVDGYRVQSNDGDVRLFEQTTSNGNVLEKNSNSDNVLDIISNDGDITVN | not soluble
4 | MSLSIASADRWSDPMPTTATTFEEFRQRVDYSLLQALKPDPEATSDGNDHRPRPVFSGHWVPVRPTPIPEPKYVAHSFILFAELGISDDLAHNSDFTRLFSGDASVAAEPMHSWGWATGYALSIYGTEYIQQCPFGTGNGYGDGRAMSIVEGVFEGQRWEMQLKGGGPTPYCRGADGRAVLRSSVREFLAQEFMHALGVPTSRSLTLYRSEAETVRRPWYSDHSRSFDPDVMVDNQAAISTRVAPSFLRVGQIELFARRARDNAHPNAHDELRLIVQHLIDRNYRAEIDATLPFHQQVLELARLFRGRLTALVANWMRVGYCQGNFNSDNCAAGGYTLDYGPFGFCELFDPRFQPWTGGGAHFSFFNQPAAAEANYRMFWRSLRTLLEGDDAAQRELDQLNEGFAVAMQQQLEAMWASKLALPAYDETLVTELLQLLVAAKADYTKAFRLLSTIPDHVAELHPSFYLPSSEDLDQRWQTWLQRWRERITANGDLEETSAAMRRVNPAITWREWLIAPAYQQAEQGDNSLVLELQTLFSSPYSAPSTELAARYDQLRPQQFFSAGGIAHYSCSSEGHHHHHH | not soluble
5 | MSLIEENLKQKIHDKFVAAKKNGHLKVTHAESKKLKDPQTTTQYWVTFAPSLALKPDANKNSDSKAEDPFANPDEELVVTEDLNGDGEYKLLLNKFPVVPEHSLLVTSEFKDQRSALTPSDLMTAYNVLCSLQGDKDDDVTCERYLVFYNCGPHSGSSQDHKHLQIMQMPEKFIPFQDVLCNGKDHFLPTFNAEPLQDDKVSFAHFVLPLPESSDQVDEDLLAMCYVSLMQRALTFFQDWTNESPELTKSYNVLLTKKWICVVPRSHAKSGPPLMLNINSTGYCGMILVKDREKLENLTEDPHLVDKSLLQCGFPNTAGQKPTEYHYEGHHHHHH | soluble
6 | MGNCLFGGLGDEEEDLLIKVIKSDGGVLEFYSPVTAGFVSHGFSGHALFSAVDLLWKPLAHDHLLVPGQSYYLFPNIVSDELKTFVGSCHVRSNSESLSAITPYRMSLDYNHRVLKRSYTDVFSRNSHIRTRQKEKKTRRRRTSSKGAIWKVNLIINTEELLQILSEDGRTNELIESVRAVAKGETSSITSSSSENFLSVVQT | soluble
7 | MSLASRRSKLIAVVVPQINNNMFVDTIQSLSDELARRGYHILLCVAGYTEQTEAELVATLLSRRPDGVVLTGIHHTIELKKVILNAAIPVVEIWDLTPTPLDMLVGFSHEKVGQATGEYLLSKGYRRPGLLWTADRRAAQRKQGLCSVLQRHAIHAVPQVDVPLPASLSLGRSGLSQLFDEGTFDVIVCSSDTLAQGAMMEAESRGLRIPHDLAVIGFGDLDFAASNRPSITTVSVDRRAIGQRAATLLADRIEQKPCAEAIVDIGFHLIGRESAEGHHHHHH | not soluble
8 | MGSDKIHHHHHHMRPKILFVVNVDWFFVSHRLPIAVAAQNVGYDVHIACQVTDKKQELEGYGFTVHSISLDRSGTSVLKEFQTMLSIYRLIKKISPALMHMITVKPVIYAGIAARILGVSKVASISGLGFIFIAEGFKSKLLKSLITILYKLALNDGKSRVIFQNDSDKGLFIRRGIISDSNTLLVRGSGVDLDKYQVKPEPESYPVIVLLARLLIDKGVLEFVQAAEILKSKGVPCKMVLAGDTDENPKSVSKNQITDWVNKGIVEYWGYSKDVNSTYANCHIAVLPSYREGLPKSLIEAAACGRAVITTDVPGCRDAITPNKTGLLVPVKSSLELALAIETLCNDSKLRQSLGQEGRQLAEQAFDIKSVIQIHLNLYADLLKGKPSV | not soluble
9 | MCRLAVFALLAVAAVSVYGQPAGGQDVPPFLRNATPAQLQSFQQLIQANGHLTETALDGKVQAWVNQQGGKVAADWADFQKFIKGQQGQAEAAHQAAVSNFSPAAKKADADLTAISNDSSLSVQAKGQKIQAYLNSLPANVKAELEKAQGQ | soluble
10 | MNSHDGSNFSNKFSAHKDVVEDLLRKDTVGLVTFQDFRARREYLERCAVAEAACQNASRRAEELETKKKRVKRANLSRLSFGDSLEDQEENSVEFAKITRFASSKKANGVGFNTSGQDIVKEPDVFSPKEEGFFGKQNRKIGMDPGVDTSFLPDRDREQEERLERERLKQQWLSEQERVKNEEIDIIYSIWDGRGQRKLLSCKKGTTIAKFLSIVQQKVSTLKHCKVEDLMFIKEDMIIPHHLSFYDLISMKARGKNGSLFCFDVHEDIRIRNDASVEKDDSHAAKVVERRWYERNKHIYPASMWEVFDVSKNYGRVQKDFFGN | soluble
11 | GMANKVEHRLSEQQMKALTDLPLVFLITHDQSKSWPITHAISWVYAKDETTIRFAIEADSLLVKTLADHPVFTLIFFADQSTYSLTCTDVAAWETTARLPLKVALYEGQIKEVRDILFYGAAVSDRPRVYKTYDEAAAMQLDQQIQDILKG | soluble
12 | MSLIAVKPKKGHLLVAEPSITGDLSFNRSVVLLADHNCEGSVGFILNKPLGYTINDLIPEISARFKVYNGGPIEQDNLYFIHNIPQLIPNSIEIAEGIYWGGCFDSTRDLINQGKITQNNIRFFLGYSGWDAAQLQEELESNSWIISENNLHNKIIGKSSTDLWREKIKEQGGDYLIWSNAPENPILNEGHHHHHH | soluble
13 | MGSDKIHHHHHHMKGIEVKQVTKSFDKKMILNGIGMTIEPNKIYGLLGRNGAGKSTLLSLLVNRIAPDTGEIRLDNKVIRDNDEQLSKMFLMSEVDLYPKNLKVKDVFKWTKSFYGGFDEELAQDLCEKFGLQTNIIFNKLSTGYRTIMKLIVALAVPVEYVFLDEPILGLDAGHREIFYNALVETYAENPRTFVISTHLIEEIANLIEHVLVIDHGRLIVDDETEKVLGEAYVVSGPEDKVDEYTQGLNVIGSDKLARIKASYVFGSLDNKPISDLINIDQMDLQTLFVNLTNGGNENE | not soluble
14 | MGHHHHHHSHMGLYHVGQAGLELLTSSDPPTSASQNAEITGVSHRAQSKAHNLQRKLRLSHKSSPPCTYTQHAGGVDSHPLTQDMCVIVNVIARPFDKCNCDIYLGLASELFVVSWVQLTVPYHWIQTLGNVILFCLDTAHRGHCDIAGHCT | not soluble
15 | GMALQEEFIDVNGTRVFQRKMVTDSNRRSIALFHGYSFTSMDWDKADLFNNYSKIGYNVYAPDYPGFGRSASSEKYGIDRGDLKHAAEFIRDYLKANGVARSVIMGASMGGGMVIMTTLQYPDIVDGIIAVAPAWVESLKGDMKKIRQKTLLVWGSKDHVVPIALSKEYASIISGSRLEIVEGSGHPVYIEKPEEFVRITVDFLRNL | soluble
16 | MAHHHHHHMNDSISSPIKATCRDMALKSSLHSFTFSLKDFDIAGFLGDGAHGSVFLACERRTNFICVLKCISKSHLVKSTQEALLRKEIELQAHLKHPHIACMYTWFHTSSHVFFVMEYCSNGDLFTYLNENGPFCEKKVAEMLFEIIWAIRTCHDKRIAHLDLKPENVLVNHEEKCKLADFGLSAHIGSKHKKKGISHYRGTHDYWSPEQCARHQKKKQNFGEFDQKTDIWTLGILAFELKFGRPPFGSTNEERENVIMNRIQDYHWSQLFCEKVKQDLIDKLSPEFKDFLNLCLDKNPKKRPTAESLIQHPFIFIHNKNRSCIKSYATQPRGKQGPKLSHKGFNEQDGSFLTPIWFHNK | soluble
17 | MNKTPRVGFVSLGCPKAASDSEQILTRLRAEGYEIAPSYDGADLVVVNTCGFIDSAVEESLDAIGEALNENGKVIVTGCLGAKGDVVRDVHPSVLAVTGPHATEEVMSAVHTHLPKPHDPFVDLVPDIGVRLTPKHYAYLKISEGCNHRCTFCIIPSMRGDLESRPIHDVLREAESLAKAGVKEILVISQDTSAYGVDTKYKLGFHNGRPVKTRMTELCEELGRHGIWVRLHYVYPYPHVDEVIPLMRDGKILPYLDIPFQHASQKVLKLMKRPANSDNVLARIKKWREICPELVIRSTFIVGFPGETEEDFEELLAFIREAELDRVGCFTYSPVEGATANELPNPVPEDVKEARKERFMAVQAEISARRLERRVGQTLQVLVDEIDDEGTAVCRSYADAPEIDGLVFVEDAAGMQPGEFYQVEIVDCSEHDLWGERRLEHHHHHH | soluble
18 | MGSSHHHHHHSSGLVPRGSHMAPSRRERERERRREQIIRAAEKAFFARGYDRVTMDEIAEEAEVNKALLYYYFKNKESLFFAVNLYGVRILHSMYRRCLELDTDGYGKVRAMVEALYSFSKEHPDYFRIYCYSGTERFELSESEDAREIVDLRTGMWRLMVEAIMEGMNDGSIRSDLDPVELSIYIHTLAINALNLDFTSRMVLEARNISRDRFWEDLEVFLESALRP | soluble
19 | MSLHQRILSEVEGHILSGDWPPGYRIPFEHELTEQYGCSRMTVNKALSELVKRGLIERRRKSGSYVSFPQVQSAVMEIHDVKREVQSLGLDYAYRLGERAVRKMRAGDEGRIDLPVSSRLLDVTCRHFAGGRVFCLEERVINLSAVPEAETETFETAAPGSWLLGKVPWSTAEHRIRAVAASRPTAQALEIAVGAACLVIERRTWSGGVPVTSVLLTYPGDRHELVAEFAPSAPA | not soluble
20 | MAHHHHHHMTQQWFPLMAVTPDYLHCITEERFRTNVYEPEADTFLLLEALDKDAHLLRALQPRRCVEIGCGSGTVISHLMLLLLGATEGGNLGSGSAEKSTAEFHAVDVNPVALEATSITWHNTQKRIIGGDTILPLHLHRGDLFSPFEHEASDITEYTKEEKEEFTFDVILFNPPYVPTTMEELQSAEAGKDLITAAWCGGPRGRVVVDRFISKLPSFLSSRGVCYIVAIRENDVEELMEVIRGTFPNDRCYPVNVTVTAERYTGEHLRVIRVS | not soluble
21 | MYSPQTFFLQEVKGQKPDGLGGLIDDWGLFKEVSGYIDLVTGTDETTKQNAFVEESTHILIIPEFIEGITDNMRVVDQTNRYYDITYSDNPVGIKHHNEIYLKFEGVLSGEE | not soluble
22 | MSLDSKLIFFDIDGTIYDHDKNIPESTRKTVAELQRQGHHVFIASGRSPFLVKPILEELGIHSFISYNGQFVVFENQVIYKNPLPENAIRRLLKQADEGKHPVVFMAEDTMKATVADHPHVLEGIGSLKTDYPETDDLFYEGKEIFQLLLFCQDEEEKAYAAFPEFDLVRWHELSTDVLPHGGSKAEGIKKVIERLPFDIGDTYAFGDGLNDLQMIEYVGTGVAMGNAVPELKEIADFVTKPVDEDGIAYAVKELGLLKEGHHHHHH | soluble
